Biological target: Bh-RNase HC (RNase HI catalytic domain, D132N) (Bacillus halodurans (genomic DNA from …, UniProt Q9KEI9 58-196, D132N))
Experiment: X-ray crystallography

B1: Dickerson-Drew dodecamer (DDD) (dsDNA)
DNA 1: CGCGAATTCGCG
DNA 2: CGCGAATTCGCG
binding result: binds

From paper PMC3689302
